How the values were obtained:
[1] = target: T1, human IGSF11 (VSIG3) on cells (human, UniProt Q5DX21 23-431); test: FACS, IgG1-format antibodies; DMS 273 cells (D) treated with IGSF11 siRNA (KD)
T1 sequence: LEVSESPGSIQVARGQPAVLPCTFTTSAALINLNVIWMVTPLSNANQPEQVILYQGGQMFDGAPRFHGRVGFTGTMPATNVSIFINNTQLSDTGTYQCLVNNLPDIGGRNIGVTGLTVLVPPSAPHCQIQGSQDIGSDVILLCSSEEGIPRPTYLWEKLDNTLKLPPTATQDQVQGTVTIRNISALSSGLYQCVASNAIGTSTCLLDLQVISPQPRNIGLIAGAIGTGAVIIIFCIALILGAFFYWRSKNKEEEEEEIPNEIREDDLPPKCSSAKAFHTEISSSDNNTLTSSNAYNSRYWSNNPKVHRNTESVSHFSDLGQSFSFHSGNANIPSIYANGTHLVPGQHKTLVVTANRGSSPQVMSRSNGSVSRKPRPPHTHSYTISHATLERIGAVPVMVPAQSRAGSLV

[2] = target: T1, human IGSF11 (VSIG3) on cells; test: FACS, IgG1-format antibodies; M579-A2-luc cells (M) treated with IGSF11 siRNA (KD)
[3] = target: T1, human IGSF11 (VSIG3) on cells; test: FACS, IgG1-format antibodies; DMS 273 cells (D) treated with scrambled control siRNA (SC)
[4] = target: T1, human IGSF11 (VSIG3) on cells; test: FACS, IgG1-format antibodies; M579-A2-luc cells (M) treated with scrambled control siRNA (SC)
[5] = target: T1, human IGSF11 (VSIG3) on cells; test: FACS, IgG1-format antibodies; CL-11 cells (C), a line that does not express IGSF11 (specificity control), IGSF11 siRNA (KD)
[6] = target: T1, human IGSF11 (VSIG3) on cells; test: FACS, IgG1-format antibodies; CL-11 cells (C), a line that does not express IGSF11 (specificity control), scrambled control siRNA (SC)
[7] = target: T2, recombinant human IGSF11 (VSIG3) extracellular domain (ECD) (human, UniProt Q5DX21 23-241, biotinylated where captured on streptavidin); test: SPR, IgG1
T2 construct: also called biotinylated recombinant ECD-IGSF11; IGSF11 (ECD domain)
T2 sequence: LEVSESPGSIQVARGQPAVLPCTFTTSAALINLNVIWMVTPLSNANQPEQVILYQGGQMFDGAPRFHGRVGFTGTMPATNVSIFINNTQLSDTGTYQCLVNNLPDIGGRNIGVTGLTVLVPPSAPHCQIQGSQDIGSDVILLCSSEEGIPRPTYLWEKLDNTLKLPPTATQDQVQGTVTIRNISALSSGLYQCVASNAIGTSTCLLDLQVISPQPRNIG

[8] = target: T1, human IGSF11 (VSIG3) on cells; test: FACS, DMS 273 cells
[9] = target: T3, His-tagged extracellular domain (ECD) of human IGSF11 (VSIG3) (human, UniProt Q5DX21 23-241); test: ELISA EC50 grade, IgG1
T3 construct: partly bought (SinoBiological 13094-H08H); also called IGSF11-HIS; HIS-IGSF11; not shown: HIS6 tag
T3 sequence: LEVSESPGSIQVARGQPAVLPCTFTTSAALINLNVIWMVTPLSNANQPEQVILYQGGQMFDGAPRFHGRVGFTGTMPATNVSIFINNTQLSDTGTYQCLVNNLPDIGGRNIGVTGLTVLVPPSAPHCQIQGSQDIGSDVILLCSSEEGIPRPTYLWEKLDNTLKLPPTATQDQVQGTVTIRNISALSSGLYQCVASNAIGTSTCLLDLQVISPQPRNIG

[10] = target: T1, human IGSF11 (VSIG3) on cells; test: FACS, HEK cells expressing IGSF11
[11] = target: T4, IGSF11 ECD fused to murine-Fc (human; mouse, UniProt Q5DX21 23-241); test: ELISA, IgG
T4 construct: also called Fc-fusion IGSF11 ECD; full-length ECD of IGSF11; not shown: murine Fc
T4 sequence: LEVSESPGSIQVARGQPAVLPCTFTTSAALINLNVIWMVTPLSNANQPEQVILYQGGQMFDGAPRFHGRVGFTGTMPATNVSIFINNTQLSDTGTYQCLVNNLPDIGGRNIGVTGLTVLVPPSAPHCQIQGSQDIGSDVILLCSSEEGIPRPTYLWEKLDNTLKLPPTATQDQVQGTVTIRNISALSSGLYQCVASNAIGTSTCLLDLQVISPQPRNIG

[12] = target: T5, recombinant cynomolgus monkey IGSF11 extracellular domain (ECD) (cynomolgus monkey, UniProt Q5DX21 23-241 (human entry), biotinylated); test: ELISA, Fab
T5 chain: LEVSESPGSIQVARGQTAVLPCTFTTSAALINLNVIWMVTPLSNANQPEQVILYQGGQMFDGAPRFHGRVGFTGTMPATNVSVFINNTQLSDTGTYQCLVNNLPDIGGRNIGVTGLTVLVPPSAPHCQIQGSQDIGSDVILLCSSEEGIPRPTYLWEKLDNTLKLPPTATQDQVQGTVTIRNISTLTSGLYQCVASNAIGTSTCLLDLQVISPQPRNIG
Description: (§1) In order to identify IGSF11-specific binding ABPs, monoclonal Fabs expressed from E. coli were generated from the enriched set of anti-IGFS11 antibody-expressing phage. After bacterial lysis, the Fabs were tested for their binding properties and cross-reactivity profile on recombinant ECD-IGSF11 (human, mouse and cynomolgus monkey) by standard ELISA. Briefly, biotinylated recombinant ECD-IGSF11 from human, mouse, or cynomolgus monkey were immobilized at 2 ug/mL on a streptavidin-coated 384-well Maxisorp plate. The surface was blocked with 2% (w/v) skim milk powder in PBST. After three wash cycles with PBST, a bacterial lysate of each of the anti-IGSF11 Fabs in 2% (w/v) skim milk powder was applied to the immobilized IGSF11 and incubated for 1 h. After removing all unbound Fab by 3 wash cycles with PBST, bound Fab antibodies were detected with a goat anti-human Fab antibody conjugated with horseradish peroxidase. After three wash cycles with PBST the ELISA was developed with TMB substrate.

[13] = target: T6, recombinant murine IGSF11 extracellular domain (ECD) (mouse, UniProt P0C673 23-240, biotinylated); test: ELISA, Fab
T6 construct: also called Mouse IGSF11; murine ECD-IGSF11
T6 sequence: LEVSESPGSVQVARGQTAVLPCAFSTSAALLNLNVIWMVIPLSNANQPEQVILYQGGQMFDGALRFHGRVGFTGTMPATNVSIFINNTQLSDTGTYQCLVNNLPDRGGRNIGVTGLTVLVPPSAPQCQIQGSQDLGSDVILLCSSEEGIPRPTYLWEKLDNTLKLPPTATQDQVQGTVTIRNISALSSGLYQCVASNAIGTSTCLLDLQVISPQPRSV
Description: as §1

[14] = target: T7, Streptavidin (UniProt P22629 37-163, limits assumed); test: ELISA, Fab
T7 construct: also called negative antigen; irrelevant antigen
T7 sequence (P22629 37-163 limits assumed): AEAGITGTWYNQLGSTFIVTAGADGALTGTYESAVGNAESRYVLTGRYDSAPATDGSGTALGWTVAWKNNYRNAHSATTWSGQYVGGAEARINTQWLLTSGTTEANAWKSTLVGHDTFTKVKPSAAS
Description: as §1

B1: A-015 (IgG1 format) (antibody, V domains shown)
VH: not shown
VL: QPVLTQSPSASASLGASVKLTCTLSSGHTNYAIAWRQQQPGKAPRYLMLLNSDGSHTRGGGIPDRFSGSSSGAERYLTISSLQSEDEADYYCMIWHNNAWVFGGGTKLAVL
notes: human IgG1 format
[1]
  percentage binding (FACS heat-map): 1.6%
[2]
  percentage binding (FACS heat-map): 1.3%
[3]
  percentage binding (FACS heat-map): 5.97%
[4]
  percentage binding (FACS heat-map): 1.17%
[5]
  percentage binding (FACS heat-map): 2.91%
[6]
  percentage binding (FACS heat-map): 1.95%

B2: A-013 (IgG1 format) (antibody, V domains shown)
VH: EVQLVESGGGLIQPGGSLRLSCAASGFTVSSNYMSWVRQAPGKGLEWVSVIYSGGSTYYADSVKGRFTISRDNSKNTLYLQMNSLRAEDTAVYYCARGNPYYYGDLQVNFDYWGQGTLVTVSS
VL: QAVVTQEPSLTVSPGGTVTLTCASSTGAVTSAYYPNWFQQKPGQAPRALIYSTSNKHSWTPARFSGSLLGGKAALTLSGVQPEDEADYYCLLYYGGAWVFGGGTKLTVL
notes: human IgG1 format
[7]
  Kd: 100 to 250 nM
[8]
  EC50: > 50 nM
[9]
  EC50: < 0.02 nM
[10]
  EC50: 10 to 50 nM

B3: A-007 (IgG1 format) (antibody, V domains shown)
VH: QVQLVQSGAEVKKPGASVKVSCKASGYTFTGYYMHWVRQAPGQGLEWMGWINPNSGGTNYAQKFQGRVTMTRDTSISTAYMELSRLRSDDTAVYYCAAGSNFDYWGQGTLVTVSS
VL: QSALTQPASVSGSPGQSITIACTGSSSDIGSFSYVSWYQQRPGKAPTLIIYGVNNRPLGVSRRFSGSKSGNTASLSISGLQAEDEADYYCSSYTRRSTVIFGGGTKLTVL
notes: human IgG1 format
[8]
  EC50: < 10 nM
[9]
  EC50: < 0.02 nM
[10]
  EC50: < 10 nM
[1]
  percentage binding (FACS heat-map): 34.2%
[2]
  percentage binding (FACS heat-map): 9.15%
[3]
  percentage binding (FACS heat-map): 82.3%
[4]
  percentage binding (FACS heat-map): 65.6%
[5]
  percentage binding (FACS heat-map): 13.2%
[6]
  percentage binding (FACS heat-map): 8.88%

B4: A-027 (IgG1 format) (antibody, V domains shown)
VH: QVQLVQSGAEVKKPGSSVKVSCKASGGTFSSYAISWVRQAPGQGLEWMGGIIPIFGTANYAQKFQGRVTITADKSTSTAYMELSSLRSEDTAVYYCARARGSTWGYFDYWGQGTLVTVSS
VL: EIVLTQSPASLSLSPGERVTLSCRASQSVSNYLAWYQQKPGQAPRLLIYDASNRATGIPARFSGSGSGTDFTLTISSLEPEDFAVYYCQQRDNWPLTFGGGTKVEIK
notes: human IgG1 format
[11]
  EC50: 1 to 20 nM
[9]
  EC50: > 1 nM
[10]
  EC50: > 50 nM
[1]
  percentage binding (FACS heat-map): 2.63%
[2]
  percentage binding (FACS heat-map): 2.5%
[3]
  percentage binding (FACS heat-map): 14.3%
[4]
  percentage binding (FACS heat-map): 3.32%
[5]
  percentage binding (FACS heat-map): 4.75%
[6]
  percentage binding (FACS heat-map): 3.08%

B5: A-004 (IgG1 format) (antibody, V domains shown)
VH: EVQLVESGGGLVKPGGSLRLSCAASGFTFSSYSMNWVRQAPGKGLEWVSSISSSSSYIYYADSVKGRFTISRDNAKNSLYLQMNSLRAEDTAVYYCARGQLLWFGESALIDAFDIWGQGTMVTVSS
VL: EIVLTQSPSSLSASVGDRVTITCRASQSISSYLNWYQLKPGKAPKLLIYAASILQSGVPSRFSGSGSGTDFTLTISSLQPEDFAAYYCQQSYSTPRTFGQGTKLEIK
notes: human IgG1 format
[7]
  Kd: 100 to 250 nM
[11]
  EC50: 1 to 20 nM
[9]
  EC50: < 0.02 nM

B6: A-034 (IgG1 format) (antibody, V domains shown)
VH: QMQLVQSGGGLVKPGGSLRLSCAASGFTFSSYTMNWVRQAPGKGLEWVSSISSIGTYIYYADSVKGRFTISRDNAKNSLYLQMNSLRAEDTAVYYCARVLLSGSYYGYFDSWGQGTLVTVSS
VL: QSVLTQPPSVSGAPGQRVTISCTGSSSNIGAGYDVHWYQQLPGTAPKLFIYGNSNRPSGVPDRFSGSKSGTSASLAITGLQAEDEADYYCQSYDSSLSGYVFGTGTKVTVL
notes: human IgG1 format
[7]
  Kd: 250 to 500 nM
[9]
  EC50: 0.05 to 1 nM

B7: A-022 (IgG1 format) (antibody, V domains shown)
VH: EVQLLESGPGLVKPSQTLSLTCTVSGGSISSGGYYWSWIRQHPGKGLEWIGYIYYSGSTYYNPSLKSRVTISVDTSKNQFSLKLSSVTAADTAVYYCARASRSTDYYFDYWGQGTLVTVSS
VL: QPGLTQPPSMSYGLGQTATLTCTGNRNNIGDQGAAWLQQHQGHPPKLLSYRNNNGPSGISERLSASRSGNTASLTISGLQPEDEADYYCSAWDSSLRAWVFGGGTKLTVL
notes: human IgG1 format
[11]
  EC50: < 1 nM
[8]
  EC50: 10 to 50 nM
[9]
  EC50: < 0.02 nM
[10]
  EC50: 10 to 50 nM

B8: A-035 (IgG1 format) (antibody, V domains shown)
VH: QVQLVQSGAEVKKPGASVKVSCKASGYTFTGYYMHWVRQAPGQGLEWMGWINPNSGNTGYAQKFQGRVTMTRNTSISTAYMELSSLRSEDTAVYYCARGRLERGYWYFDLWGRGTLVTVSS
VL: NFMLTQPHSVSESPGRTVTISCTRSSGSITSNYVQWYQQRPGSAPTILIYEDKERPSEVPDRFSGSIDISSNSASLTISGLKTEDEADYYCQSYGGTSQGVLFGGGTKVTVL
notes: human IgG1 format
[11]
  EC50: 1 to 20 nM
[9]
  EC50: 0.02 to 0.05 nM
[10]
  EC50: > 50 nM

B9: A-010 (IgG1 format) (antibody, V domains shown)
VH: QVQLVQSGAEVKKPGASVKVSCKASGYTFTSYGISWVRQAPGQGLEWMGWISAYNGNTNYAQKLQGRVTMTTDTSTSTAYMELRSLRSDDTAVYYCARVPAWSGQFDYWGQGTLVTVSS
VL: QSALTQPASVSGSPGQSITISCTGSSSDVGGYNYVSWYQQYPGKAPKLMIYDVRSRPSGVSNRFSGSKSGNTASLTISGLQAEDEADYYCTSYTSSNTLVIFGGGTKVTVL
notes: human IgG1 format
[11]
  EC50: < 1 nM
[9]
  EC50: < 0.02 nM

B10: C-006 (Fab format) (Fab, V domains shown)
VH: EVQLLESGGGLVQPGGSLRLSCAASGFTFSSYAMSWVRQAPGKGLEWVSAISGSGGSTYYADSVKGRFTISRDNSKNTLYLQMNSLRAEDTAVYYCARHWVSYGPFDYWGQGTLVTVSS
VL: DIQMTQSPSSLSASVGDRVTITCRASQSISSYLNWYQQKPGKAPKLLIYAASSLQSGVPSRFSGSGSGTDFTLTISSLQPEDFATYYCQQSHQSPPITFGQGTKVEIK
notes: Fab in E. coli lysate
[12]
  A450: < 1

B11: C-010 (Fab format) (Fab, V domains shown)
VH: QVQLVQSGAEVKKPGSSVKVSCKASGGTFSSYAISWVRQAPGQGLEWMGGIIPIFGTANYAQKFQGRVTITADESTSTAYMELSSLRSEDTAVYYCARGYGEYYPAFDVWGQGTLVTVSS
VL: SYELTQPPSVSVSPGQTASITCSGDKLGDKYASWYQQKPGQSPVLVIYQDSKRPSGIPERFSGSNSGNTATLTISGTQAEDEADYYCASYAHTHSTWVFGGGTKLTVL
notes: Fab in E. coli lysate
[13]
  A450: < 1
[12]
  A450: < 1
[14]
  A450: < 0.1

B12: C-012 (Fab format) (Fab, V domains shown)
VH: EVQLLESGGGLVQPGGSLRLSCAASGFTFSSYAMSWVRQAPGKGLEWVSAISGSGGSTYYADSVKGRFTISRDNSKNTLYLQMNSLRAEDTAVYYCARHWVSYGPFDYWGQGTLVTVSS
VL: DIQMTQSPSSLSASVGDRVTITCRASQSISSYLNWYQQKPGKAPKLLIYAASSLQSGVPSRFSGSGSGTDFTLTISSLQPEDFATYYCQQSHQSPPITFGQGTKVEIK
notes: Fab in E. coli lysate
[12]
  A450: < 1

Source: patent US20240010720A1 (IOMX THERAPEUTICS, published 2024)
